Measurements taken from EP3494999A1, “PSMA LIGANDS FOR IMAGING AND ENDORADIOTHERAPY” (Technische Universität München, priority 2017, dated 2019).
Square brackets hold non-standard residues; d marks the D form. Peptide text beside a SMILES is read from it. * marks the point of attachment. X1 = O=C(O)CC[C@H](NC(=O)N[C@@H](CCCCNC(=O)CCCCCCC(=O)*)C(=O)O)C(=O)O; DOTAGA = O=C(O)CN1CCN(CC(=O)O)CCN(C(CCC(=O)*)C(=O)O)CCN(CC(=O)O)CC1; dPhe(4-NH2) = Nc1ccc(C[C@@H](N)C(=O)O)cc1; dTyr(3-I) = N[C@H](Cc1ccc(O)c(I)c1)C(=O)O; Phe(4-NH2) = Nc1ccc(C[C@H](N)C(=O)O)cc1

Legend:
LNCaP xenograft = test system: LNCaP xenograft; parameters: species or system SCID mice; settings: mouse, in vivo
Protocol: (§1) All animal experiments were carried out in accordance with the general animal welfare regulations in Germany (Deutsches Tierschutzgesetz, approval #55.2-1-54-2532-71-13). For the tumor model, LNCaP cells (approx. 10^7 cells) were suspended 1:1 in serum-free DMEM-F12 medium and Matrigel (BD Biosciences, Germany) and inoculated onto the right shoulder of male, 6 to 8 weeks old CB-17 SCID mice (Charles River Laboratories, Sulzfeld, Germany). Animals were used after the tumor size reached 4 to 8 mm in diameter for experiments.

[1] = parameters: species or system SCID mice; settings: mouse, in vivo
Protocol: as §1
Imaging experiments were conducted using a Siemens Inveon small animal PET and data analyzed by the associated Inveon Research Workplace software. Mice were anaesthetised with isoflurane and the ^68Ga-radiolabeled PSMA inhibitors (0.2 nmol, 7.0 to 12 MBq) were injected via tail vein. Dynamic imaging was carried out after on-bed injection for 90 min. The static blockade image was obtained, after 1 h p.i. with 15 min acquisition time. Blockade was done by coinjection of 8mg/kg of PMPA. All images were reconstructed using an OSEM3D algorithm without […] and attenuation correction.

SMILES	Increased tumor uptake (LNCaP xenograft)	kidney clearance [1]
Nc1ccc(C[C@H](NC(=O)CCC(C(=O)O)N2CCN(CC(=O)O)CCN(CC(=O)O)CCN(CC(=O)O)CC2)C(=O)N[C@H](Cc2ccc(O)c(I)c2)C(=O)N[C@H](Cc2ccccc2)C(=O)N[C@H](CCCCNC(=O)CCCCCCC(=O)NCCCC[C@H](NC(=O)N[C@@H](CCC(=O)O)C(=O)O)C(=O)O)C(=O)O)cc1 (stereo partly drawn) [[^nat/177Lu]PSMA-3, DOTAGA-(4-NH2)F-(l-y)-f-k-KuE, metal not drawn] ({DOTAGA}-[Phe(4-NH2)][dTyr(3-I)][dF][dK](X1)-OH)	about 200%	–
Nc1ccc(C[C@@H](NC(=O)CCC(C(=O)O)N2CCN(CC(=O)O)CCN(CC(=O)O)CCN(CC(=O)O)CC2)C(=O)N[C@H](Cc2ccc(O)c(I)c2)C(=O)N[C@H](Cc2ccccc2)C(=O)N[C@H](CCCCNC(=O)CCCCCCC(=O)NCCCC[C@H](NC(=O)N[C@@H](CCC(=O)O)C(=O)O)C(=O)O)C(=O)O)cc1 (stereo partly drawn) [[^nat/177Lu]PSMA-2, DOTAGA-(4-NH2)f-(l-y)-f-k-KuE, metal not drawn] ({DOTAGA}-[dPhe(4-NH2)][dTyr(3-I)][dF][dK](X1)-OH)	–	accelerated kidney clearance
